From patent US20110262366A1 come the findings set out here.

The term IC50 denotes the concentration at which inhibition is half-maximal. Low values mean greater potency in that assay, high ones weaker potency in that assay. As usually defined, the pIC50 is −log10 of the IC50, conventionally taken in molar units. High values mean a small IC50, low ones a large IC50.

pIC50: −log10 of the molar value.

For experiment [1], the target named is endothelial cell receptor on HAEC (human aortic endothelial cells). In words: competition, 250 ng/ml KDR/Fc against 5% DPPE-GTKPPR microbubbles (competitor) on HAEC, static.
Experiment [2] has the same target. In words: competition, 500 ng/ml KDR/Fc against 5% DPPE-GTKPPR microbubbles (competitor) on HAEC, static.
Experiment [3] has the same target. In words: competition, 2500 ng/ml KDR/Fc against 5% DPPE-GTKPPR microbubbles (competitor) on HAEC, static.
For experiment [4] the target is unchanged. In words: competition, 125 ng/ml KDR/Fc against 5% DPPE-GTKPPR microbubbles (competitor) on HAEC, static.
The target is the same in experiment [5]. In words: competition, 1000 ng/ml KDR/Fc against 5% DPPE-GTKPPR microbubbles (competitor) on HAEC, static.
For experiment [6] the target is unchanged. In words: competition, 200 ng/ml VEGF121 against 2% BRU-114 microbubbles (competitor) on HAEC, static.
For experiment [7] the target is unchanged. In words: competition, 100 ng/ml VEGF121 against 2% BRU-114 microbubbles (competitor) on HAEC, static.
For experiment [8] the target is unchanged. In words: competition, 400 ng/ml VEGF121 against 2% BRU-114 microbubbles (competitor) on HAEC, static.
The target is the same in experiment [9]. In words: competition, 25 ng/ml VEGF165 against 2% BRU-114 microbubbles (competitor) on HAEC, static.
The target is the same in experiment [10]. In words: competition, 100 ng/ml VEGF165 against 2% BRU-114 microbubbles (competitor) on HAEC, static.
Experiment [11] shares this target. In words: competition, 12.5 ng/ml VEGF165 against 5% DPPE-GTKPPR microbubbles (competitor) on HAEC, static.
The target is the same in experiment [12]. In words: competition, 75 ng/ml VEGF165 against 5% DPPE-GTKPPR microbubbles (competitor) on HAEC, static.
Experiment [13] has the same target. In words: competition, 50 ng/ml VEGF165 against 5% DPPE-GTKPPR microbubbles (competitor) on HAEC, static.
For experiment [14] the target is unchanged. In words: competition, 200 ng/ml VEGF165 against 2% BRU-114 microbubbles (competitor) on HAEC, static.
For experiment [15] the target is unchanged. In words: competition, 25 ng/ml VEGF165 against 5% DPPE-GTKPPR microbubbles (competitor) on HAEC, static.
Experiment [16] shares this target. In words: competition, VEGF165 against 5% DPPE-GTKPPR microbubbles (competitor) on HAEC, static.
Experiment [17] deals with NP-1/Fc (Neuropilin-1/Fc, R&D Systems). In words: fluorescence polarization, competition against OG-labeled BRU-326 (competitor) on NP-1/Fc. In general terms: In fluorescence polarisation assays a small probe gives low polarisation when free and higher when bound to something large.
In experiment [18] the target is endothelial cell receptor on HAEC (human aortic endothelial cells). In words: competition, 6.25 ng/ml VEGF165 against 5% DPPE-GTKPPR microbubbles (competitor) on HAEC, static.
Experiment [19] shares this target. In words: conjugated fluorescent beads on confluent HAEC, static 30 min, image analysis (Example 2, experiment 1).

Sequence of soluble human KDR/Fc chimera (R&D Systems Inc.) (P35968 20-764, change not shown): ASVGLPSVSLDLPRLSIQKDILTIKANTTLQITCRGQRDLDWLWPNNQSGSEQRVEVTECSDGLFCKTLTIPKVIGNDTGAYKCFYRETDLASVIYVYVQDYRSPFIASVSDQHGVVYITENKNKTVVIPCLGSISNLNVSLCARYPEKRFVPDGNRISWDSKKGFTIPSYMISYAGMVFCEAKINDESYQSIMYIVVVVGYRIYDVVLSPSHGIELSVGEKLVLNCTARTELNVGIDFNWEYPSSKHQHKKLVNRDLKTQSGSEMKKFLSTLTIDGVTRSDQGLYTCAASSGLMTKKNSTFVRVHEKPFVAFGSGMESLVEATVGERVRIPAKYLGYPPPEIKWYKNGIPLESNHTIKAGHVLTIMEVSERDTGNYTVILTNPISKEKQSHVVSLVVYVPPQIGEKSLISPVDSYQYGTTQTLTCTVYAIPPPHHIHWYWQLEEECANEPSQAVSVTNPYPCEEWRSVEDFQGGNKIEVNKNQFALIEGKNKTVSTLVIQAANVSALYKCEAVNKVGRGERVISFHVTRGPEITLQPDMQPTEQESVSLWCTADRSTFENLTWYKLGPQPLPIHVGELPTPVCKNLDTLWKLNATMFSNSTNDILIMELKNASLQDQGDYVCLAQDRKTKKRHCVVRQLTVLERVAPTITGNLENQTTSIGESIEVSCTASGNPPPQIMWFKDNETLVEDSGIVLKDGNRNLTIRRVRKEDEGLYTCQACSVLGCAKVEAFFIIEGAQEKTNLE
Sequence of NP-1/Fc (Neuropilin-1/Fc, R&D Systems) (Q9QWJ9 22-855): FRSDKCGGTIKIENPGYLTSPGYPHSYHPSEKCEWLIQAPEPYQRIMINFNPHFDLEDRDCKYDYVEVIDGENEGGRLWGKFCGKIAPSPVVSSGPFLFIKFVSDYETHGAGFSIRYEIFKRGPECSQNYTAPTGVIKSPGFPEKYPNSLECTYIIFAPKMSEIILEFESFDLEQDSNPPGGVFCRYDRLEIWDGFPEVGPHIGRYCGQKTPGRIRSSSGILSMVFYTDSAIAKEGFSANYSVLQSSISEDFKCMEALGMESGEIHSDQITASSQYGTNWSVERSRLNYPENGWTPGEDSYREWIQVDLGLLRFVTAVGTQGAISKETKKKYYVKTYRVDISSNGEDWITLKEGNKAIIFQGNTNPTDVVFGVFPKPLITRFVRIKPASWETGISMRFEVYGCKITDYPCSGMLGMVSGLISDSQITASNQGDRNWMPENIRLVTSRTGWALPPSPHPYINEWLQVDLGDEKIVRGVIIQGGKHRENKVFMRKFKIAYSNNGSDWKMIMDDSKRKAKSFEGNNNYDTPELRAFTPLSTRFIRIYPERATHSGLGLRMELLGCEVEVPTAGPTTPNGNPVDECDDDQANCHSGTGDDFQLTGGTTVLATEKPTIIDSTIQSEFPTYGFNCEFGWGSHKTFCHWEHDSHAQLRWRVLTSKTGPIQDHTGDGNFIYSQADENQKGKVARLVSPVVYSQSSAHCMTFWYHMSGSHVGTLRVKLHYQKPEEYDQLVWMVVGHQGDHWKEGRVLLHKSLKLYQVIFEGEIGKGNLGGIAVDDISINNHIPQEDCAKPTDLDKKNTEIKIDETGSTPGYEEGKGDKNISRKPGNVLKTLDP

In the case of “soluble human KDR/Fc chimera (R&D Systems Inc.) (from UniProt P35968 20-764) (Fc fusion)”, the Bubbles Bound in presence of competitor in [1] was 786 bubbles; in [2] it was 342 bubbles; in experiment [3], 84 bubbles; in experiment [4] it was 1030 bubbles; in [5] it was 75 bubbles.

With “VEGF121 (from UniProt P15692 27-147) (ligand)”, the Bubbles Bound in presence of competitor was 849 bubbles in experiment [6], 878 bubbles in [7] and 778 bubbles in experiment [8].

Take “VEGF165 (from UniProt P15692 27-191) (ligand)”: the Bubbles Bound in presence of competitor is 144 bubbles in experiment [9]; 94 bubbles in experiment [10]; 599 bubbles in experiment [11]; 190 bubbles in experiment [12]; 226 bubbles in experiment [13]; 70 bubbles in [14]. Further, the Bubbles Bound in presence of competitor in experiment [15] came out at 342 bubbles; in experiment [18], 1180 bubbles. The substance also had an IC50 in [16] of 0.0125 µg/mL. Moreover, the pIC50 in experiment [17] was 6.70.

Turning to “BSA-conjugated fluorescent beads (from UniProt P02769 25-607)”, the Integrated density of bound beads (arbitrary units) in experiment [19] is 1.61.
